Experiment [1] addresses biotinylated Ub (biotin maleimide on an N-terminal cysteine) (UniProt P0CG48). Put plainly: METRIS (mechanically transduced immunosorbent assay); as a7, surface of Ub, UbV^RING and UbV^CDH1 both added as competitors (concentrations not given).
Experiment [2] has as its target biotinylated Ub–CycB^N (AviTag–Ub–Cyclin B (1–88)–Cys–6xHis) (UniProt P0CG48). Put plainly: METRIS (mechanically transduced immunosorbent assay); biotinylated APC/C (with or without CDH1) on streptavidin ferromagnetic beads rolling on streptavidin wells coated with biotinylated CycB^N, Ub–CycB^N or Ub; rotating field 1 Hz; rolling parameter (RP); relative measure; no UbV added.

The target in experiment [3] is biotinylated Ub (biotin maleimide on an N-terminal cysteine) (UniProt P0CG48). The description is as above.
Experiment [4] has as its target biotin–CycB^N* (AviTag–Cyclin B (1–88)–Cys–6xHis, biotinylated, Alexa488-labeled) (UniProt P14635). The experiment is described as above.
Experiment [5] has as its target biotinylated Ub–CycB^N (AviTag–Ub–Cyclin B (1–88)–Cys–6xHis) (UniProt P0CG48). Kind of experiment: METRIS (mechanically transduced immunosorbent assay); as a7, surface of Ub–CycB^N, UbV^CDH1 added as competitor (concentration not stated).

Chain of biotin–CycB^N* (AviTag–Cyclin B (1–88)–Cys–6xHis, biotinylated, Alexa488-labeled) (P14635 other isoform, or with tags, fused parts or gaps): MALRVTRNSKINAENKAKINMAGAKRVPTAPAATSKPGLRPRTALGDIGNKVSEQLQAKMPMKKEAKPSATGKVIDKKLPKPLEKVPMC

“biotinylated APC/C^CDH1 (biotinylated APC/C with HaloTag, AviTag and Twin-Strep(II)-tag on APC4, incubated with CDH1 on the beads) (from UniProt Q9UJX6 1-822; P30260 1-824; Q9UJX5 1-808; Q9UJX3 1-565; Q9UJX2 1-595; Q9UM13 4-185; Q9NYG5 1-84; Q9UM11 1-496) (complex)” displayed a rolling parameter (RP) with UbV^RING and UbV^CDH1 added in experiment [1] of 0.13. Moreover, the rolling parameter (RP) in experiment [2] was determined as 0.21; in experiment [3], 0.17; in experiment [4] it was 0.15. Also, the rolling parameter (RP) with UbV^CDH1 added in experiment [5] amounted to 0.19.

For the origin of these results see PMC10643132.
